Reference: publication PMC7491320, “Pdc2/Pat1 increases the range of decay factors and RNA bound by the Lsm1–7 complex” (RNA, 2019)

Key:
[1] = molecular target: the molecule itself; test: AUC; sedimentation velocity, 9.3 µM PatMC/Lsm1–7 with stoichiometric A15 RNA, 250 mM NaCl, 20 mM HEPES pH 7.0, 1 mM DTT, 22°C, 30,000 rpm, 10–12 h
[2] = molecular target: the molecule itself; test: AUC; sedimentation velocity, 9.3 µM PatMC/Lsm1–7 without RNA, 250 mM NaCl, 20 mM HEPES pH 7.0, 1 mM DTT, 22°C, 30,000 rpm, 10–12 h

B1: PatMC/Lsm1–7 complex (complex)
chain 1: LDEKRQKLERDHMLMAQCAGLMTRSDKSFIARIQISQLMSEDPESDDFYYRVYSIIRGRKPSEEEASHFIQTYLGPSNNRRRGRRSENPMQKLQQQLQRLVSSAKERPKATQLSLEGALGKIAVNTVRTPRQLLNVKRPTEPASSNSSLNNFSGFSTKKDVLHAIEKVYDLLLDFEQALRKASTLETTDQEQIDTWKTTLSEKLESIWKALYINESLEASSKTRPPFISIISHPKGMRLLPRLFPHLSKEQQISILKVVVYNFDSLDIVLRGTFDVNGELPLDVVSEMSSFTQFIIPPLLTIVNELDLETINNLFSQLLNRTNAVYLIQTKIGLSFLTLFISRAEILKQSGTVNQNEKEEWENTFNVMFNRVKGHFSTVFPPPNARAYADESYPWEFLAACATAASSEQHFTLVSETRDRVLDNIITSKRAPSEIAVVRISNVNLFLNAMGLDARQLSA
chain 2: MNQATQIIPFTTSGSLVDYVDRKVIVVLRDGKKLIGILRSFDQFANLMLQYTIERIYVDDMYGDIDRGVYIVRGENVVLLGELDLDKEYDAVKQLRRMPAEELYPLAKLHEEEKKKNIREKGKYLHSVGFSVDGGHDDLY
chain 3: MLFYSFFKTLIDTEVTVELKNDMSIRGILKSVDQFLNVKLENISVVDASKYPHMAAVKDLFIRGSVVRYVHMSSAYVDTILLADACRRDLANNKRQ
chain 4: not shown
chain 5: MLPLTLLNATQGRPILVELKNGETFNGHLENCDNYMNLTLREVIRTMPDGDKFFRLPECYIRGNNIKYLRIQDEVLSQVAKQQAQQRENRGSRFRGRGQRGRGNYGHTAPNRRGRGRGGHM
chain 6: not shown
chain 7: MDSSPNEFLNKVIGKKVLIRLSSGVDYKGILSCLDGYMNLALERTEEYVNGKKTNVYGDAFIRGNNVLYVSALDD
chain 8: MSSLQKRPGPGNSSQPTERPRKESILDLSRYQDQRIQATFTGGRQITGILKGFDQLMNLVLDDVEEQLRNPEDGKLTGAIRKLGLVVVRGTTLVLIAPMDGSEEIPNPFVQAE
notes: Pat1 (Pdc2) of S. pombe, middle and carboxy-terminal domains (PatMC), residues 296-754, codon optimized; Lsm1 of S. pombe, from a polycistron with all seven Lsm proteins; Lsm2 of S. pombe, from the polycistron; Lsm3 of S. pombe, from the polycistron; Lsm4 of S. pombe, from the polycistron; Lsm5 of S. pombe, from the polycistron; Lsm6 of S. pombe, from the polycistron; Lsm7 of S. pombe, from the …
stoichiometry N [1]: 4 | stoichiometry N [2]: 2
